Numbering of substitutions follows the chain as printed. Names may count otherwise.
T1: M16
T1 construct: human CTLA-4Fc mutant; also called CTLA-4Fc M16
T1 mutant human CTLA-4 extracellular domain fused to IgG1 Fc: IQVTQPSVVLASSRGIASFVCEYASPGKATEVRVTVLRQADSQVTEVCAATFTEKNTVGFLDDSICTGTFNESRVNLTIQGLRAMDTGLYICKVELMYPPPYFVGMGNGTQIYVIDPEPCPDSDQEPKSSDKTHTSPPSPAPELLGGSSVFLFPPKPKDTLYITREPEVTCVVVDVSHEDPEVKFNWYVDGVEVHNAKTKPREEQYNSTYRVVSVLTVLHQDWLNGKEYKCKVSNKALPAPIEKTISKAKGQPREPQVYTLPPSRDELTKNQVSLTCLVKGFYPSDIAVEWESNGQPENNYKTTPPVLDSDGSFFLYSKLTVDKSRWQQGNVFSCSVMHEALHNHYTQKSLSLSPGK

B1: Humanized HC1 + LC2 (PP4631) (antibody, IgG1, V domains shown)
VH: QVQLQESGPGLVKPSETLSLTCTVSGFSLTSYGLSWIRQPPGKGLEWIGYIWYDGNTNFHPSLKSRVTISKDTSKNQFSLKLSSVTAADTAVYYCAKTEGHYYGSNYGYYALDYWGQGTSVTVSS
VL: DIQMTQSPSSLSASVGDRVTITCRASENIYSNLAWYQQKQGKAPKLLLYAATNLQDGVPSRFSGSGSGTDYTLTISSLQPEDFATYFCQHLWGTPYTFGQGTKLEIK
notes: Humanized L3D10; also called H3106 + L3107; HL12
B2: Humanized HC1 + LC1 (PP4630) (antibody, IgG1, V domains shown)
VH: B1 VH
VL: B1 VL with Q40P, D56S, Y71F, F87Y, Q100G
notes: Humanized L3D10; also called H3106 + L3106
B3: Humanized HC3 + LC2 (PP4637) (antibody, IgG1, V domains shown)
VH: B1 VH with P61S, S62P, K71V, S120L
VL: B1 VL
notes: Humanized L3D10; also called H3108 + L3107; HL32
B4: Humanized HC3 + LC3 (PP4638) (antibody, IgG1, V domains shown)
VH: B1 VH with P61S, S62P, K71V, S120L
VL: B1 VL with Q40P, L48I, N53S, D56S, Y71F, F87Y, Q100G, L104V
notes: Humanized L3D10; also called H3108 + L3108
B5: Humanized HC3 + LC1 (PP4636) (antibody, IgG1, V domains shown)
VH: B1 VH with P61S, S62P, K71V, S120L
VL: B1 VL with Q40P, D56S, Y71F, F87Y, Q100G
notes: Humanized L3D10; also called H3108 + L3106
B6: Humanized HC2 + LC3 (PP4635) (antibody, IgG1, V domains shown)
VH: B1 VH with P61S, N76S, F78V, S120L
VL: B1 VL with Q40P, L48I, N53S, D56S, Y71F, F87Y, Q100G, L104V
notes: Humanized L3D10; also called H3107 + L3108
B7: Humanized HC2 + LC2 (PP4634) (antibody, IgG1, V domains shown)
VH: B1 VH with P61S, N76S, F78V, S120L
VL: B1 VL
notes: Humanized L3D10; also called H3107 + L3107
B8: Humanized HC1 + LC3 (PP4632) (antibody, IgG1, V domains shown)
VH: B1 VH
VL: B1 VL with Q40P, L48I, N53S, D56S, Y71F, F87Y, Q100G, L104V
notes: Humanized L3D10; also called H3106 + L3108
B9: Humanized HC2 + LC1 (PP4633) (antibody, IgG1, V domains shown)
VH: B1 VH with P61S, N76S, F78V, S120L
VL: B1 VL with Q40P, D56S, Y71F, F87Y, Q100G
notes: Humanized L3D10; also called H3107 + L3106
B10: human B7-1 Fc fusion protein (Fc fusion, UniProt P33681 35-242, looked up)
chain: VIHVTKEVKEVATLSCGHNVSVEELAQTRIYWQKEKKMVLTMMSGDMNIWPEYKNRTIFDITNNLSIVILALRPSDEGTYECVVLKYEKDAFKREHLAEVTLSVKADFPTPSISDFEIPTSNIRRIICSTSGGFPEPHLSWLENGEELNAINTTVSQDPETELYAVSSKLDFNMTTNHSFMCLIKYGHLRVNQTFNWNTTKQEHFPDN
modifications: biotinylated (sites not given)
notes: Control protein; Used biotinylated in soluble phase; also called Biotin-HB7-1; Biotin-hB7-1; not shown: Fc portion
B11: human B7-1 Fc fusion protein (Fc fusion, UniProt P33681 35-242, looked up)
chain: B10 chain
notes: also called B7-1 Ig; B7-1 Ig fusion protein; not shown: Fc portion, not described
B12: chimeric L3D10 antibody (antibody, V domains shown)
VH: QVQLKESGPGLVAPSQSLSITCTVSGFSLTSYGLSWVRQPPGKGLEWLGVIWYDGNTNFHSALISRLTISKDNSKSQVFLELNSLQTDDTATYYCAKTEGHYYGSNYGYYALDYWGQGTSVTVSS
VL: DIQMTQSPASLSVSVGETVTITCRASENIYSNLAWYQQKQGKSPQLLVYAATNLADGVPSRFSGSGSGTQYSLKINSLQSEDFGTYFCQHLWGTPYTFGGGTKLEIKR
notes: Biotinylated in the ELISAs; also called Chimeric Parental; PP4629
B13: chimeric L3D10 antibody (antibody, V domains shown)
VH: B12 VH
VL: B12 VL
modifications: biotinylated (sites not given)
notes: Mouse L3D10 variable regions on human IgG1 with M252Y, S254T, T256E, S298A, E333A, K334A; Used biotinylated in the ELISA; also called Biotin-L3D10; PP4629
B14: anti-mouse CTLA4 mAb 9D9 (antibody, V domains shown)
VH: EAKLQESGPVLVKPGASVKMSCKASGYTFTDYYMNWVKQSHGKSLEWIGVINPYNGDTSYNQKFKGKATLTVDKSSSTAYMELNSLTSEDSAVYYCARYYGSWFAYWGQGTLITVST
VL: DIVMTQTTLSLPVSLGDQASISCRSSQSIVHSNGNTYLEWYLQKPGQSPKLLIYKVSNRFSGVPDRFSGSGSGTDFTLKISRVEAEDLGVYYCFQGSHVPYTFGGGTKLEIK

Key:
[1] = target: T2, mouse CTLA4-Fc fusion protein (mouse, UniProt P09793 36-162, limits assumed); experiment: ELISA, plate-coated mCTLA4-Fc, biotinylated antibody
T2 construct: also called mCTLA4-Fc; mCTLA-4; not shown: Fc portion, not described

[2] = target: T3, Control IgG1-Fc (human, UniProt P01857-1 99-330 = IgG part, limits assumed); experiment: ELISA: hIgGFc coated on the plate (negative control), biotinylated antibody in solution, HRP-streptavidin, OD450
T3 construct: domain: Fc; also called hIg-Fc; hIgG

[3] = target: T4, huCTLA4 (antigen of the Octet experiments) (human, UniProt P16410 37-162, limits assumed); experiment: BLI (Octet Red96), antibody on anti-hIgG Fc biosensor, huCTLA4 in solution, 1:1 fit
T4 construct: Construct of the soluble antigen not described; also called the antigen
T4 sequence (P16410 37-162 limits assumed): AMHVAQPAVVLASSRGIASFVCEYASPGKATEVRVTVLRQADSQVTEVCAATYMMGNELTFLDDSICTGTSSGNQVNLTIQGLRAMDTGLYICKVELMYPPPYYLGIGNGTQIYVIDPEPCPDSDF

[4] = target: T3, Control IgG1-Fc; experiment: ELISA: hIgGFc coated on the plate (negative control), biotinylated antibody in solution, HRP-streptavidin, OD450; remark: listed apart in the source
[5] = target: T5, M12; experiment: ELISA: CTLA-4Fc protein coated on the plate, biotinylated antibody in solution, HRP-streptavidin, OD450
T5 construct: human CTLA-4Fc with clusters of murine Ctla-4 residues; also called CTLA-4Fc M12

[6] = target: T1, M16; experiment: as above
[7] = target: T6, M14; experiment: as above
T6 construct: human CTLA-4Fc mutant; also called CTLA-4Fc M14

[8] = target: T4, huCTLA4 (antigen of the Octet …); experiment: BLI (Octet), purified 0.1 L material, replicate 2
[9] = target: T4, huCTLA4 (antigen of the Octet …); experiment: BLI (Octet), purified 0.1 L material, replicate 1
[10] = target: T7, human CTLA-4Fc mutant protein M6 (human); experiment: ELISA on coated target; binder 10 ng/ml
T7 construct: also called Mutant 6

[11] = target: T8, human CTLA-4Fc mutant protein M8 (human); experiment: ELISA on coated target; binder 1000 ng/ml
T8 construct: also called Mutant 8

[12] = target: T7, human CTLA-4Fc mutant protein M6; experiment: ELISA on coated target; binder 1000 ng/ml
[13] = target: T3, Control IgG1-Fc; experiment: ELISA, plate-coated IgG1-Fc, biotinylated B7-1
[14] = target: T9, mouse CTLA4 in cells of Ctla4 m/m (WT) mice (mouse, UniProt P09793 36-223); experiment: flow cytometry, intracellular staining of CTLA4 in spleen cells of Ctla4 m/m mice, gated on CD3+CD4+
T9 construct: whole, on cells; also called murine Ctla-4

[15] = target: T7, human CTLA-4Fc mutant protein M6; experiment: ELISA on coated target; binder 100 ng/ml
[16] = target: T2, mouse CTLA4-Fc fusion protein; experiment: ELISA, binding to soluble mouse CTLA4-Fc (the legend gives no further details of the format)
[17] = target: T2, mouse CTLA4-Fc fusion protein; experiment: blocking ELISA: plate B7-2, biotinylated mouse CTLA4-Fc with the antibody, HRP-streptavidin; blocked ligand B7-2

Row | Binder | Kd [3] | koff [3] | kon [3] | also measured
1 | B1 | – | – | – | binding result [1]: no binding; binding result [2]: no binding (tested: 0.2 µg/mL)
2 | B2 | 13 nM | 0.0018 s⁻¹ | 130000 M⁻¹ s⁻¹ | –
3 | B3 | – | – | – | binding result [1]: no binding; binding result [4]: no binding (tested: 0.2 µg/mL); binding result [5]: no binding (tested: 0.2 µg/mL); binding result [6]: no binding (tested: 0.2 µg/mL); binding result [7]: no binding (tested: 0.2 µg/mL)
4 | B4 | 8.1 nM | 0.0023 s⁻¹ | 290000 M⁻¹ s⁻¹ | Kd [8]: 11 nM; koff [8]: 0.0022 s⁻¹; kon [8]: 210000 M⁻¹ s⁻¹; Kd [9]: 9.4 nM; koff [9]: 0.0021 s⁻¹; kon [9]: 230000 M⁻¹ s⁻¹
5 | B5 | 8.7 nM | 0.0022 s⁻¹ | 250000 M⁻¹ s⁻¹ | –
6 | B6 | 8.4 nM | 0.002 s⁻¹ | 240000 M⁻¹ s⁻¹ | –
7 | B7 | 6.8 nM | 0.0019 s⁻¹ | 280000 M⁻¹ s⁻¹ | –
8 | B8 | 12 nM | 0.0019 s⁻¹ | 160000 M⁻¹ s⁻¹ | –
9 | B9 | 7.1 nM | 0.0014 s⁻¹ | 200000 M⁻¹ s⁻¹ | –
10 | B10 | – | – | – | OD450 [10]: 0.279 OD; OD450 [11]: 3.63 OD; OD450 [12]: 3.41 OD
11 | B11 | – | – | – | binding result [13]: no binding
12 | B12 | – | – | – | binding result [14]: no binding
13 | B13 | – | – | – | OD450 [15]: 3.03 OD
14 | B14 | – | – | – | EC50 (read off the curve) [16]: ~0.4 µg/mL; IC50 (read off the curve) [17]: ~1 µg/mL
